This assay addresses Rac1 expressed as an N-terminal GST-fusion protein (Bos taurus (Bovine), UniProt P62998 1-189). As to the kind of experiment: GST pull-down, anti-FLAG Western blot. On the procedure:
Each cell lysate was subjected to a pull-down assay for detecting the binding of the hj03796 DH/PH, or the proto-Db1 DH/PH, to a Rho family protein. 300 μL of each cell lysate, 20 μL of Glutathione Sepharose 4B in the lysis buffer, and 100 μL of the lysis buffer were mixed. Each sample was prepared in such a way that the final concentration of MgCl₂ and dithiothreitol (DTT) was 1 mM. After reacting at 4° C. for 1 hour with rotating by rotator, each sample washed three times with 1 mL of cold lysis buffer (the final concentration of MgCl₂ was 1 mM) by centrifigation at 1,000 rpm for 15 seconds at 4° C. After washing and removing the supernatant, the Glutathione Sepharose 4B was added with 40 μL of a solution that was prepared by mixing SDS-PAGE sample buffer (the same composition as in Example 2) with an equal volume of the lysis buffer. After that, it was mixed with a mixer and subjected to a heat treatment at 100° C. for 5 minutes, to prepare a sample for electrophoresis. SDS-polyacrylamide gel electrophoresis was carried out, and then the gel was equilibrated for 5 minutes or more in a blotting buffer (the same composition as in Example 2). The proteins were transferred onto a PVDF membrane. After blotting, the PVDF membrane was subjected to blocking at 4° C. overnight, in TBS-T+BA (the same composition as in Example 2). […]
(A western blot detects proteins with antibodies after separation by electrophoresis.)

B1: proto-Db1 DH/PH (C-terminal FLAG-tagged protein) (other)
chain: MAVLKNHVLNELIQTERVYVRELYTVLLGYRAEMDNPEMFDLMPPLLRNKKDILFGNMAEIYEFHNDIFLSSLENCAHAPERVGPCFLERKDDFQMYAKYCQNKPRSETIWRKYSECAFFQECQRKLKHRLRLDSYLLKPVQRITKYQLLLKELLKYSKDCEGSALLKKALDAMLDLLKSVNDSMHQIAINGYIGNLNELGKMIMQGGFSVWIGHKKGATKMKDLARFKPMQRHLFLYEKAIVFCKRRVESGEGSDRYPSYSFKHCWKMDEVGITEYVKGDNRKFEIWYGEKEEVYIVQASNVDVKMTWLKEIRNILLKQ
notes: Positive control; also called DH/PH domain of proto Db1; deletion mutant of proto-Db1; not shown: C-terminal FLAG tag of vector pFLAG-CMV5a
For B1, the binding result is recorded as “no binding”.

For the origin of these results see patent US20070196377A1 (Daiichi Sankyo, published 2007).
